We go through one molecule from publication doi:10.1101/2022.04.10.487811 (bioRxiv, 2022).

The experiment has as its target SARS-CoV-2 Beta-variant Spike with six stabilizing proline substitutions (S-6P) (SARS-CoV-2 Beta variant, strain). Description: BLI. For orientation: Biolayer interferometry detects binding as a change in optical thickness at a sensor tip.

B1: C143 variant VL T33N-G53V, IgG (antibody, V domains shown)
VH: EVQLVESGGGLVQPGGSLRLSCAASGFSVSTKYMTWVRQAPGKGLEWVSVLYSGGSDYYADSVKGRFTISRDNSKNALYLQMNSLRVEDTGVYYCARDSSEVRDHPGHPGRSVGAFDIWGQGTMVTVSS
VL: QSALTQPASVSGSPGQSITISCTGTSNDVGSYNLVSWYQQYPGKAPKLLIFEVTKRSSGISNRFSGSKSGNTASLTISGLQGEDEADYYCCSYAGASTFVFGGGTKLTVL
For B1, the binding result is on record as “binds”.
